Six proteins from patent US20210261937 can be followed below.

Positions count from the first letter of the chain named.

The labels stand for the following.
B1: bdSENP1^MutH (protein)
chain: PFVPLTDEDEDNVRHALGGRKPSETLSVHEASAIVITREILQCLNDKEWLNDEVINLYLELLKERELREPNKFLKCHFFNTFFYKKLINGYDYKSVREWTTMRKLGYNLIDCDKIFVPIHKDVHWCLAVINIKEKKFQYLDSLGYMDMKALRILAKYLVDEVKDKSGKQIDVHAWKQEGVQNLPLQENGWDCGMFMLKYIDFYSRDMELVFGQKHMSYFRRRTAKEILDLKAG
B2: bdSENP1^MutJ (protein)
chain: PFVPLTDEDEDNVRHALGGRKESETLSVHEASSIVITREILQCLNDKEWLNDEVINLYLELLKERELREPNKFLKCHFFNTFFYKKLINGGYDYKSVRSWTTTRKLGYNLIDCDKIFVPIHKDVHWCLAVINIKEKKFQYLDSLGYMDMKALRILAKYLVDEVKDKSGKQIDVHAWKQEGVQNLPLQENGWDCGMFMLKYIDFYSRDMELVFGQKHMSYFRRRTAKEILDLKAG
B3: bdSENP1^MutK (protein)
chain: B2 chain with E22V, S33Q, S99V, T103G
B4: bdSENP1^Muti (protein)
chain: B2 chain with E22K, S33H, S99E, T103R
B5: bdSENP1^MutG (protein)
chain: PFVPLTDEDEDNVRHALGGRKSSETLSVHEASHIVITREILQCLNDKEWLNDEVINLYLELLKERELREPNKFLKCHFFNTFFYKKLINGGYDYKSVRRWTTVKLGYNLIDCDKIFVPIHKDVHWCLAVINIKEKKFQYLDSLGYMDMKALRILAKYLVDEVKDKSGKQIDVHAWKQEGVQNLPLQENGWDCGMFMLKYIDFYSRDMELVFGQKHMSYFRRRTAKEILDLKAG
B6: Ulp1 from S. cerevisiae (protein)
chain: LVPELNEKDDDQVQKALASRENTQLMNRDNIEITVRDFKTLAPRRWLNDTIIEFFMKYIEKSTPNTVAFNSFFYTNLSERGYQGVRRWMKRKKTQIDKLDKIFTPINLNQSHWALGIIDLKKKTIGYVDSLSNGPNAMSFAILTDLQKYVMEESKHTIGEDFDLIHLDCPQQPNGYDCGIYVCMNTLYGSADAPLDFDYKDAIRMRRFIAHLILTDALK

One data set addresses bdSUMO D67K-MBP fusion protein.
Protein B1 displayed a cleavage of the SUMO fusion protein of less than 75 % cleavage.
Same read-out and setting: then B2, with 100 % cleavage; and B3, with 100 % cleavage; and B4, with less than 25 % cleavage.
The same measure, in the same setting: then B5, with less than 75 % cleavage.
In the case of B6, the “cleavage of the SUMO fusion protein” value was “resistant”.

The next data set has as its target bdSUMO Mut10-MBP fusion protein.
For B1, the cleavage of the SUMO fusion protein was 100 % cleavage.
For the protein B2, the cleavage of the SUMO fusion protein stood at 100 % cleavage.
Same read-out and setting: then B3, with 100 % cleavage.
The protein B4 had a cleavage of the SUMO fusion protein of less than 50 % cleavage.
On the same count and under the same terms, then B5, with 100 % cleavage; and B6, with “resistant”.

For a further data set, the target named is bdSUMO Mut11-MBP fusion protein.
In turn, B1 came in with a cleavage of the SUMO fusion protein of 100 % cleavage.
In turn, B2 registered a cleavage of the SUMO fusion protein of 100 % cleavage.
B3 returned a cleavage of the SUMO fusion protein of 100 % cleavage.
The same measure, in the same setting: to B4 belongs less than 50 % cleavage; to B5, less than 75 % cleavage.
B6: the “cleavage of the SUMO fusion protein” value was “resistant”.

Another data set has as its target bdSUMO Mut12-MBP fusion protein.
B1 came in with a cleavage of the SUMO fusion protein of 100 % cleavage.
Same read-out and setting: then B2, with less than 50 % cleavage; and B3, with 100 % cleavage.
B4 displayed a cleavage of the SUMO fusion protein of less than 50 % cleavage.
Same read-out and setting: then B5, with less than 50 % cleavage; and B6, with “resistant”.

A further data set addresses bdSUMO Mut13-MBP fusion protein.
The protein B1 had a cleavage of the SUMO fusion protein of 100 % cleavage.
Still for that read-out and setting: to B2 belongs 100 % cleavage; to B3, 100 % cleavage; to B4, less than 75 % cleavage.
Still for that read-out and setting: to B5 belongs less than 75 % cleavage; to B6, “resistant”.

A further data set addresses bdSUMO Mut14-MBP fusion protein.
B1 came in with a cleavage of the SUMO fusion protein of 100 % cleavage.
Same read-out and setting: to B2 belongs less than 50 % cleavage; to B3, 100 % cleavage.
B4: the cleavage of the SUMO fusion protein was less than 50 % cleavage.
Protein B5 yielded a cleavage of the SUMO fusion protein of less than 50 % cleavage.
Still for that read-out and setting: then B6, with “resistant”.

Another data set has as its target bdSUMO Mut15-MBP fusion protein.
For B1, the cleavage of the SUMO fusion protein is 100 % cleavage.
The same measure, in the same setting: then B2, with 100 % cleavage; and B3, with 100 % cleavage; and B4, with less than 50 % cleavage.
Regarding B5, the cleavage of the SUMO fusion protein was less than 75 % cleavage.
Same read-out and setting: to B6 belongs “resistant”.

The target in another data set is bdSUMO Mut8-MBP fusion protein.
As to B1, the cleavage of the SUMO fusion protein was less than 75 % cleavage.
Still for that read-out and setting: then B2, with less than 50 % cleavage.
Still for that read-out and setting: to B3 belongs less than 75 % cleavage; to B4, less than 25 % cleavage; to B5, less than 25 % cleavage.
Turning to B6, the “cleavage of the SUMO fusion protein” value is “resistant”.

For the next data set, the target named is bdSUMO-MBP fusion protein.
Consider B1, for which the cleavage of the SUMO fusion protein was less than 25 % cleavage.
The protein B2 returned a cleavage of the SUMO fusion protein of less than 50 % cleavage.
Still for that read-out and setting: then B3, with less than 50 % cleavage; and B4, with less than 25 % cleavage.
The same measure, in the same setting: to B5 belongs less than 50 % cleavage; to B6, 100 % cleavage.

The target in another data set is bdSUMO^Mut1-MBP fusion protein.
Take B1: the cleavage of the SUMO fusion protein is 100 % cleavage.
Still for that read-out and setting: to B2 belongs 100 % cleavage; to B3, 100 % cleavage.
For the protein B4, the cleavage of the SUMO fusion protein turned out to be 100 % cleavage.
On the same count and under the same terms, to B5 belongs 100 % cleavage; to B6, “resistant”.

Another data set deals with hsSUMO2-MBP fusion protein.
Regarding B1, the “cleavage of the SUMO fusion protein” value is on record as “resistant”.
Still for that read-out and setting: to B2 belongs less than 50 % cleavage.
Same read-out and setting: to B3 belongs “resistant”; to B4, “resistant”.
The same measure, in the same setting: then B5, with 100 % cleavage; and B6, with less than 25 % cleavage.

Another data set addresses hsSUMO2-MBP fusion protein with the bdSUMO^Mut1 exchanges.
As to B6, the “cleavage of SUMO-MBP fusion, 1 h at 25 °C (FIG. 14)” value (“cleavage of SUMO-MBP fusion, 1 h” for short) is “allowed cleavage resistance against Ulp1, SUMOstar protease, hsSENP2 and bdSENP1”.

The next data set concerns the target hsSUMO2-MBP fusion protein with the bdSUMO^Mut11 exchanges.
B6: the “cleavage of SUMO-MBP fusion, 1 h” value was “allowed cleavage resistance against Ulp1, SUMOstar protease, hsSENP2 and bdSENP1”.

A further data set deals with scSUMO-MBP fusion protein.
Consider B1, for which the “cleavage of the SUMO fusion protein” value is listed as “resistant”.
As to B2, the cleavage of the SUMO fusion protein is less than 25 % cleavage.
For the protein B3, the “cleavage of the SUMO fusion protein” value is given as “resistant”.
B4: the “cleavage of the SUMO fusion protein” value was “resistant”.
In turn, B5 displayed a cleavage of the SUMO fusion protein of less than 25 % cleavage.
As for B6, the cleavage of the SUMO fusion protein came to 100 % cleavage and the “protease concentration required to efficiently cleave 100 µM cognate substrate, 1 h at 0 °C” value is recorded as “Around 15-50 nM of these two proteases were required to efficiently cleave the cognate substrate”.

A further data set has as its target scSUMO-MBP fusion protein with the bdSUMO^Mut1 exchanges.
Consider B6, for which the “cleavage of SUMO-MBP fusion, 1 h” value was “allowed cleavage resistance against Ulp1, SUMOstar protease, hsSENP2 and bdSENP1”.

In a further data set the target is scSUMO-MBP fusion protein with the bdSUMO^Mut11 exchanges.
In the case of B6, the “cleavage of SUMO-MBP fusion, 1 h” value was “allowed cleavage resistance against Ulp1, SUMOstar protease, hsSENP2 and bdSENP1”.
